The target of data set [1] is T1, E. coli RNase P holoenzyme, P RNA U69A (Escherichia coli, UniProt P0A7Y8 1-119).
T1 sequence: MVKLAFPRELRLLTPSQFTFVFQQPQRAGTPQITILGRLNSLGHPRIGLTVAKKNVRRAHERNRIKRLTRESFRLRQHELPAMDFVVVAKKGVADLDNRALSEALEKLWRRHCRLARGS
The data set is described as follows: single-turnover kinetics by PAGE (K'); 17.5 mM Mg2+; imprecise, very slow cleavage; 50 mM MES pH 6, 100 mM NaCl, 17.5 mM MgCl2 (or CaCl2), 0.015% Triton X-100 reduced, 37 C (PAGE single turnover); stopped-flow in similar buffer. The conditions noted are these: protein: recombinant; label: 5' Cy3 on strand 1; 12 bp continuous helix with one U-G wobble; 5' overhang 9 nt, 3' overhang 4 nt (GCCA).

The target of data set [2] is T2, E. coli RNase P holoenzyme, P RNA C70U (Escherichia coli, UniProt P0A7Y8 1-119).
T2 sequence: T1 sequence
The data set is described as above. The conditions noted are these: protein: recombinant; label: 5' Cy3 on strand 1; 12 bp continuous helix with one U-G wobble; 5' overhang 9 nt, 3' overhang 4 nt (GCCA).

For data set [3], the target named is T3, E. coli RNase P holoenzyme (C5 protein + P RNA), wild type (Escherichia coli, UniProt P0A7Y8 1-119).
T3 sequence: T1 sequence
Nature of the data set: single-turnover kinetics by PAGE (K' from kobs vs [E]); 17.5 mM Mg2+, pH 6; K' approximates Kd; 50 mM MES pH 6, 100 mM NaCl, 17.5 mM MgCl2 (or CaCl2), 0.015% Triton X-100 reduced, 37 C (PAGE single turnover); stopped-flow in similar buffer. To be noted: protein: recombinant; label: 5' Cy3 on strand 1; 12 bp continuous helix with one U-G wobble; 5' overhang 9 nt, 3' overhang 4 nt (GCCA).

The target in data set [4] is T3, E. coli RNase P holoenzyme (C5 protein …). Nature of the data set: stopped-flow 2Ap fluorescence, global fit (k-1/k1); 17.5 mM Mg2+; k1 0.43e6 M-1 s-1, k-1 0.084 s-1; 50 mM MES pH 6, 100 mM NaCl, 17.5 mM MgCl2 (or CaCl2), 0.015% Triton X-100 reduced, 37 C (PAGE single turnover); stopped-flow in similar buffer. To be noted: protein: recombinant; label: 2-aminopurine; 12 bp continuous helix with one U-G wobble; 5' overhang 9 nt, 3' overhang 4 nt (GCCA).

B1: 5'Cy3-MD1 (dsRNA)
RNA 1: ACCCAAAAUGGUCCGGGCGGG
RNA 2: CCCGUCCGGACCGCCA
modifications: 2-aminopurine at position 8 (N-2) as printed, written A; Table 1 appears to swap the Cy3 between 5'Cy3-MD1 and 5'Ap(-2)-MD1
What is called Kd is a measure of binding affinity in units of concentration. On to B1, for which the Kd in data set [1] is less than 250 nM; in data set [2] it was less than 250 nM; in data set [3], 189 nM.

B2: 5'Ap(-2)-MD1 (dsRNA)
RNA 1: ACCCAAAAUGGUCCGGGCGGG
RNA 2: CCCGUCCGGACCGCCA
modifications: 2-aminopurine at position 8 (N-2), written A; Table 1 prints a 5' Cy3 (apparently swapped with 5'Cy3-MD1)
Consider B2, for which the Kd in data set [4] turned out to be 195 nM.

The values are drawn from PMC11221534, “A minimal RNA substrate with dual fluorescent probes enables rapid kinetics and provides insight into bacterial RNase P active site interactions”.
